Numbering of substitutions follows the chain as printed. One block for each binder: values may come before it.
Legend:
XCR1-SMALP-GFP = target: T1, XCR1-SMALP-GFP; assay: flow cytometry, yeast-displayed Fab, 25 nM XCR1-SMALP-GFP, after background subtraction
T1 sequence (P46094 whole entry, species assumed, looked up): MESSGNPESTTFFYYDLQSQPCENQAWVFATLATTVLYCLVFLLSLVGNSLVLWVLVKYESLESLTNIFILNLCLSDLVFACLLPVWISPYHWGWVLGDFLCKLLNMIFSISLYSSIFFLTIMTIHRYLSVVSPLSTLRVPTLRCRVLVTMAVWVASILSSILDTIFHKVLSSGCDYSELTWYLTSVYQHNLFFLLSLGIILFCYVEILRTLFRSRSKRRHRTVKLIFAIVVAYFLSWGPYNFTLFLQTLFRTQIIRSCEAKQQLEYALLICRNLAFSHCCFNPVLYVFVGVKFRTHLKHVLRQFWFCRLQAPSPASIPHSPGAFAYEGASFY

XCR1-SMALP = target: T2, XCR1-SMALP; assay: flow cytometry, yeast-displayed Fab, 50 nM XCR1 SMALP
T2 sequence (P46094 whole entry, species assumed, looked up): T1 sequence (P46094 whole entry, species assumed, looked up)

Relative binding fold change compared to LIBC528116 (Fab) (XCR1-SMALP-GFP): 0.64 fold
B1: LIBC680562-1 (yeast-displayed Fab) (Fab, V domains shown)
VH: QVQLQESGPGLVKPSQTLSLTCTVSGGSIRRGGDYWAWIRQHPGKGLEWIGHIYQTGSTNYNPRFKGRATISVNTYKNQFSLKLSSVTAADTAVYYCARNYDTLTGYSYYYYGMDVWGQGTTVTVSS
VL: DIQMTQSPSSLSASVGDRVTITCRASQSISSYLNWYQQKPGKAPKLLIYSARRLSSGVPSRFSGSGSGTDFTLTISSLQPEDFATYYCQQYAKSPITFGGGTKVEIKR

Relative binding fold change compared to LIBC528116 (Fab) (XCR1-SMALP-GFP): 0.47 fold
B2: LIBC680800-1 (yeast-displayed Fab) (Fab, V domains shown)
VH: B1 VH
VL: B1 VL with R53A, A92R, S94F, I96L

Relative binding fold change compared to LIBC528116 (Fab) (XCR1-SMALP-GFP): 0.72 fold
B3: LIBC681593-1 (yeast-displayed Fab) (Fab, V domains shown)
VH: B1 VH
VL: B1 VL with S50N, S55G, A92R, K93S, I96V

Relative binding fold change compared to LIBC528116 (Fab) (XCR1-SMALP-GFP): 0.56 fold
B4: LIBC680574-1 (yeast-displayed Fab) (Fab, V domains shown)
VH: B1 VH with I53V, Q55Y, N60K, R64S, G67D
VL: B1 VL with S50G, S55G, A92S, K93S, S94L, I96V

Relative binding fold change compared to LIBC528116 (Fab) (XCR1-SMALP-GFP): 1.04 fold
B5: LIBC681594-1 (yeast-displayed Fab) (Fab, V domains shown)
VH: B1 VH
VL: B1 VL with S50K, R53K, Y91F, A92G, K93S, S94M, I96L

Relative binding fold change compared to LIBC528116 (Fab) (XCR1-SMALP-GFP): 0.59 fold
B6: LIBC680812-1 (yeast-displayed Fab) (Fab, V domains shown)
VH: B1 VH with A37G, I53V, N60K, R64S, G67D
VL: B1 VL with A92R, K93S, S94Y

relative binding fold change compared to LIBC523797-1(Fab) (XCR1-SMALP): 0.59 fold
B7: LIBC673952-1 (Fab on yeast) (Fab, V domains shown)
VH: QVQLQESGPGLVKPSQTLSLTCTVSGGSIRRGGDYWSWIRQHPGKGLEWIGHVYYTGQTTYNPSFRGRVTISVNTYKNQFSLKLSSVTAADTAVYYCARDYDILTGYSYYYYGLDVWGQGTTVTVSS
VL: DIVMTQSPLSLPVTPGEPASISCRSSQSLLHRSGYNYLDWYLQKPGQSPQLLIYQGSNRASGVPDRFSGSGSGTDFTLKISRVEAEDVGVYYCRQARALPRTFGQGTKVEIKR

relative binding fold change compared to LIBC523797-1(Fab) (XCR1-SMALP): 0.8 fold
B8: LIBC674229-1 (Fab on yeast) (Fab, V domains shown)
VH: QVQLQESGPGLVKPSQTLSLTCTVSGGSIRRGGDYWSWIRQHPGKGLEWIGHIYQTGQTKYNPSFKGRVRISVNTYKNQFSLKLSSVTAADTAVYYCARGYDVSGYSYYYYGMDVWGQGTTVTVSS
VL: B7 VL with R94M, A96S, R97L, A98Q, L99T

relative binding fold change compared to LIBC523797-1(Fab) (XCR1-SMALP): 0.79 fold
B9: LIBC674200-1 (Fab on yeast) (Fab, V domains shown)
VH: B8 VH with I53V, Q55Y, K60A, S64N, K66R, G67N
VL: B7 VL with Q55L, D65G, R94M, A96S, R97L, A98Q, L99T

relative binding fold change compared to LIBC523797-1(Fab) (XCR1-SMALP): 0.74 fold
B10: LIBC674090-1 (Fab on yeast) (Fab, V domains shown)
VH: B8 VH with Q55Y, T56A, Q58S, K60A, S64N, K66R, V103T, M113L
VL: B7 VL with R94M, A96S, R97L, A98Q, L99T

— patent US20250277029A1, “CANNABINOID TYPE 1 RECEPTOR BINDING PROTEINS AND USES THEREOF” (AMGEN INC., priority 2022, published 2025)
